Data set [1] is described as follows: Beaker calibration: glucose sensitivity of protein switch sensors. Type of data set: biochemical. The following applies: Sensor active area 0.33 mm^2 with PVP membrane; 100 mM PBS, room temperature, 1-30 mM glucose.
The nature of data set [2]: Beaker stability (long-term stability) of protein switch sensors. The conditions noted are these: Sensor in 30 mM glucose in 100 mM PBS at 33° C., after 1 day. The format is physicochemical. How it is done: Beaker Stability. The beaker stability (long-term stability) of the sensor GDH-105 and the sensors comprising the protein switches GDH-2004, GDH-2007, GDH-2008, GDH-2009, GDH-2010, GDH-2011, GDH-2015, GDH-2018, GDH-2019, GDH-2005, GDH-2013, GDH-2016, and GDH-2024 described above were evaluated in 30 mM glucose in 100 mM PBS at 33° C. as shown in FIG. 8. After 4 days, each of the signals experienced a sensor drop (decreased stability for detecting glucose) at different rates, as shown in Table 10.
Beaker Stability. The beaker stability (long-term stability) of the GDH-105, GDH-2025, GDH-2026, GDH-2027, and GDH-2028 sensors were evaluated in 30 mM glucose in 100 mM PBS at 33° C. as shown in FIG. 11. After 1 day, each of the signals experience sensor drop (decreased stability for detecting glucose) of different rates, as provided in Table 12.

A short description of data set [3]: Warfarin inhibition of protein switch sensors in test beaker. The format is biochemical. The conditions noted are these: 100 mM PBS 33° C., 10 mM NAD+; for effect of increasing warfarin concentrations on sensor signal: 5 mM glucose, 10, 30, 80, 180, 300 uM warfarin, FIGS. 12A, 12B, 13; for sensor response to glucose addition: glucose 5 mM. As to the method:
Warfarin Sensor. Experimental GDH-105 and GDH-2016 glucose-responsive active areas were prepared using a single-layer active area system. The GDH was obtained from Codexis, Redwood City, Calif. The active area was coated onto a carbon working electrode in a single layer composition (Table 8). Following deposition of the active area, the active area was cured for three days at RT.
Experimental procedure. Testing of the GDH-105 and GDH-2016 sensors was conducted by immersing the electrode in a 100 mM PBS buffer solution at 33° C. NAD^+ (5 mM) supplied to a test beaker containing PBS buffer followed by the addition of glucose (1 mM).
Evolved Warfarin sensors. GDH-105, GDH-2016, GDH-2025, GDH-2026, GDH-2027, and GDH-2028 glucose-responsive active areas were prepared using a single-layer active area system. The GDH was obtained from Codexis, Redwood City, Calif. The active area (0.33 mm^2) was coated onto a carbon working electrode in a single layer composition (Table 8). Following deposition of the active area, the active area was cured for three days at room temperature.
Experimental procedure. Testing of the GDH-105, GDH-2016, GDH-2025, GDH-2026, GDH-2027, and GDH-2028 sensors was conducted by immersing the electrode in a 100 mM PBS buffer solution at 33° C. NAD^+(10 mM) supplied to a test beaker containing PBS buffer followed by the addition of glucose (5 mM).

B1: GDH-2025: Warfarin protein switch, SEQ ID NO: 1; SEQ ID NO:11 with mutation C96F (protein)
chain: AMYPDLKGKVVAITGAASGLGKAMAIRFGKEQAKVVINYYSNKQDPNEVKEEVIKAGGEAVVVQGDVTKEEDVKNIVQTAIKEFGTLDIMINNAGLFNPVPSHEMPLKDWDKVIGTNLTGAFLGSREAIKYFVENDIKGNVINMSSVHEVIPWPLASHYTASKGGMKLMTKTLALEYAPKGIRVNNIGPGAINTTINAEKFADPKQKADVESMIPMGYIGEPEEIAAVAAWLASKEASYVTGITLFADGGMTLYPSFQAGRG
With B1, in data set [1], the Sensitivity stood at 0.32 nA/mM. For the same molecule, in data set [2], the “Signal drop (1 day)” value is −58%. In data set [3], the “effect of increasing warfarin concentrations on sensor signal” value is listed as “inhibition” and the “sensor response to glucose addition” value is on record as “showed response to glucose addition”.

B2: GDH-2028: Warfarin protein switch, SEQ ID NO: 15; mutations C96F; L252V (protein)
chain: MYPDLKGKVVAITGAASGLGKAMAIRFGKEQAKVVINYYSNKQDPNEVKEEVIKAGGEAVVVQGDVTKEEDVKNIVQTAIKEFGTLDIMINNAGLFNPVPSHEMPLKDWDKVIGTNLTGAFLGSREAIKYFVENDIKGNVINMSSVHEVIPWPLASHYTASKGGMKLMTKTLALEYAPKGIRVNNIGPGAINTTINAEKFADPKQKADVESMIPMGYIGEPEEIAAVAAWLASKEASYVTGITLFADGGMTVYPSFQAGRG
In data set [1], B2 returned a Sensitivity of 0.09 nA/mM. Besides, the “Signal drop (1 day)” value in data set [2] is listed as −68%. Moreover, in data set [3], the “effect of increasing warfarin concentrations on sensor signal” value is “inhibition” and the “sensor response to glucose addition” value is on record as “showed response to glucose addition”.

The record behind these values is US20220372542A1, “DETECTION OF ANALYTES BY PROTEIN SWITCHES” (ABBOTT DIABETES CARE INC., priority 2019, published 2022).
